Target: cathepsin B (Homo sapiens, UniProt P07858)
Test: Release of a drug moiety from a conjugate in presence of cathepsin
Type: in vitro ADME
Conditions: 0.2 units cathepsin B, sodium acetate buffer pH 5.5, 1 mM Cys, 2 hours at 40° C., HPLC ESI-MS
Procedure: As an example, that is not intended to limit the scope of the invention, the release of a compound of formula (II) from the conjugate was performed in presence of cathepsin as reported below.
The conjugate A1 was incubated with 0.2 units of cathepsin B in sodium acetate buffer pH 5.5 and 1 mM Cys for 2 hours at 40° C.

Cc1cc2c(OC(=O)N(C)CCN(C)C(=O)OCc3ccc(NC(=O)[C@H](CCCNC(N)=O)NC(=O)[C@@H](NC(=O)CCCCCN4C(=O)CC(SC[C@H](N)C(=O)O)C4=O)C(C)C)cc3)cc3c(c2s1)[C@H](CCl)CN3C(=O)c1cc2cc(OCCN3CCCC3)ccc2[nH]1 (stereo partly shown) [A1]
release of the compound of formula (II) from the conjugate (breaking of the Z peptidic linker): Disappearance of the conjugate A1 and release of the corresponding compound of formula (II)

Reference: patent US10266547B2, “Thieno[2,3-e]indole derivatives as new antitumor agents” (NERVIANO MEDICAL SCIENCES S.R.L., priority 2013, dated 2019)
